These results are taken from patent US20250161478A1, “LINKER PAYLOADS AND CONJUGATES THEREOF” (priority 2021, published 2025).

This assay addresses TYRP1 antigen on human melanoma cells (IGR-1, SK-MEL-30, SK-MEL-28) (human) (UniProt P17643). Briefly: cell-based or functional assay.

The substance “TAAuM (anti-mGP75-maleimidoacetyl-β-Ala-Val-Ser(Glc)-PAB-MMAU), DAR 10 (antibody)” had an IC50, cell viability (PrestoBlue), IGR-1 cells of 1.3 nM.
